Data reported in PMC6856059 (Nature, 2019).

Molecular target: the molecule itself
Assay: cryo-EM structure

B1: N-terminally truncated zebrafish NKCC1 (domain or fragment)
chain: KFGWIKGVLVRCMLNIWGVMLFIRMTWIVGQAGIAYSCIIVIMATVVTTITGCSTSAIATNGFVRGGGAYYLISRSLGPEFGGSIGLIFAFANAVAVAMYVVGFAETVVELLMDSGLLMIDQTNDIRVIGTITVILLLGISVAGMEWEAKAQIFLLVILITAIFNYFIGSFIAVDSKKKFGFFSYDAGILAENFGPDFRGQTFFSVFSIFFPAATGILAGANISGDLADPQMAIPKGTLLAILITGLVYVGVAISAGACIVRDATGIESNFTLISNCTDAACKYGYDFSSCRPTVEGEVSSCKFGLHNDFQVMSVVSGFSPLISAGIFSATLSSALASLVSAPKVFQALCKDNIYPGIAIFGKGYGKNNEPLRGYFLTFGIALAFILIAELNVIAPIISNFFLASYALINFSVFHASLANSPGWRPSFKYYNMWASLAGAILCCVVMFIINWWAALLTNVIVLSLYIYVSYKKPDVNWGSSTQALTYHQALTHSLQLCGVADHIKTFRPQCLVMTGAPNSRPAILHLVHAFTKNVGLMLCGHVRISSRRPNFKELNSDMLRYQRWLLNNNSKAFYTCVVAEDLRQGTQYMLQAAGLGRLRPNTLVIGFKNDWRTGDIKEVETYINLIHDAFDFQYGVVILRLREGLDISHIQGQDDSSGMKDVVVSVDISKDSDGDSSKPSSKATSVQNSPAVQKDEDDDGKAHTQPLLKKDKKSPTVPLNVADQRLLDASQQFQQKQGKGTVDVWWLFDDGGLTLLIPYLIANKKKWKDCKIRVFIGGKINRIDHDRRAMATLLSKFRIDFSDITVLGDINTKPKSEGLTEFAEMIEPYKLREDDMEQEAAEKLKSEEPWRITDNELELYKAKGNRQIRLNELLKEHSSTANLIVMSMPLARKGAVSSALYMAWLDTLSKDLPPILLVRGNHQSVLTFYS
stoichiometry N: 2
